Experimental data published in paper PMC3206007, “Crystal Structure of the Complex mAb 17.2 and the C-Terminal Region of Trypanosoma cruzi P2β Protein: Implications in Cross-Reactivity” (PLoS Neglected Tropical Diseases, 2011).

Molecular target: T1, human β1 adrenergic receptor (Homo sapiens, UniProt P08588)
T1 construct: also called β1-AR; ß1-AR; source: HEK cells, stably transfected (HEK-β1), on cells
Assay: flow cytometry on cells; HEK and HEK-β1 cells incubated with mAb 17.2 (500 nM) 1 h at room temperature in supplemented DMEM; Cy3-conjugated goat anti-mouse IgG; propidium iodide to exclude dead cells
Settings: one partner purified

T1 sequence (P08588 whole entry): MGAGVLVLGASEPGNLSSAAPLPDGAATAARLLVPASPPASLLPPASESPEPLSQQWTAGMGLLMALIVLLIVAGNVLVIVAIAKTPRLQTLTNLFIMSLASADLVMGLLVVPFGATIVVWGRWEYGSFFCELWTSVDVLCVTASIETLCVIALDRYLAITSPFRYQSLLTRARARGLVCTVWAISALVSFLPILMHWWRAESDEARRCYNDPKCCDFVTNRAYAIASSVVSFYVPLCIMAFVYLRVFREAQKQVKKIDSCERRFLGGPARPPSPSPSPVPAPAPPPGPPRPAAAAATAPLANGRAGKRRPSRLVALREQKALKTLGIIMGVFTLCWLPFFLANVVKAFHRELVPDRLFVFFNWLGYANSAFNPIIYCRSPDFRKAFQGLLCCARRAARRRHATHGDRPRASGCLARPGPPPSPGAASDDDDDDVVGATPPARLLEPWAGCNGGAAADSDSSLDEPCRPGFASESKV

B1: murine monoclonal antibody 17.2 (antibody, V domains shown)
VH: EVQLEESGGRLVQPKGSLKLSCAASGFSFNTNAMNWVRQAPGKGLEWVARIRSKINNYSTYYADSVKDRFTISRDDSQSMLYLQMNNLKTEDTAMYYCVRGTTYWGQGTLVTVSA
VL: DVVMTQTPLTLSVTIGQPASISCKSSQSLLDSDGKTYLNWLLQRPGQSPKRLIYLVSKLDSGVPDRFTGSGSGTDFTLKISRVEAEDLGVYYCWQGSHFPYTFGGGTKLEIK
notes: variable and CH1 domains as the heavy chain of m1 (PDB 3SGE, 3SGD); the rest is the mouse IgG1 constant region, not in the entries; as the light chain of m1 (kappa; PDB 3SGE, 3SGD); Whole IgG1, kappa; also called mAb 17.2; source: purified from ascitic fluid (40% ammonium sulphate, DEAE-Sephacel)
  binding result: binds
